Test results published in the Human Domainome abundance scans (Beltran et al. 2025).
± gives the uncertainty stated by the source.

B1: Gamma-crystallin S, residues 96 to 176; numbered along this chain, P22914 (parent)
chain: IQIFEKGDFSGQMYETTEDCPSIMEQFHMREIHSCKVLEGVWIFYELPNYRGRQYLLDKKEYRKPIDWGAASPAVQSFRRI

Variants of: B1
Assay: abundance fitness (aPCA) (normalised: wild type 0, dead -1); higher = more abundant; growth selection in yeast, the domain comes from the species named
Details: Homo sapiens

| Variant | abundance fitness |
| --- | --- |
| IQIFEKGDFSGQMNETTEDCPSIMEQFHMREIHSCKVLEGVWIFYELPNYRGRQYLLDKKEYRKPIDWGAASPAVQSFRRI | 0.063 ± 0.081 |
| IQIFEKGDFSGQMYETTEDCPSIMEQFHMREIHSCKVLEGVWIFYELPNYRGRQYLLDKKEYRKPIDWGAASPAVQSFRRK | -0.186 ± 0.24 |
| IQIFEKGDFSGQMYETTEDCPSIMEQFHMREIHSCKVLEGVGIFYELPNYRGRQYLLDKKEYRKPIDWGAASPAVQSFRRI | -1.02 ± 0.092 |
| IQIFEKGDFSGQMYETTEDCPSIMEQFHMREIHSCPVLEGVWIFYELPNYRGRQYLLDKKEYRKPIDWGAASPAVQSFRRI | -1.19 ± 0.21 |
| IQIFEKGDFSGQMYETTEDCPSIMEYFHMREIHSCKVLEGVWIFYELPNYRGRQYLLDKKEYRKPIDWGAASPAVQSFRRI | 0.082 ± 0.11 |
| IQIFEKGDFSGQMYETTEDCPSIMEQFHMREIHSCKVLEGVWIFYERPNYRGRQYLLDKKEYRKPIDWGAASPAVQSFRRI | 0.011 ± 0.042 |
| IQIFEKGDFSGQMYETTEDCPSIMEQFHMREIHSCKVLEGVWIFYEWPNYRGRQYLLDKKEYRKPIDWGAASPAVQSFRRI | -0.078 ± 0.049 |
| IQIFEKGDFSGQMYETTEDCPSIMEQFHMREIHSCKVLEGVWIFYESPNYRGRQYLLDKKEYRKPIDWGAASPAVQSFRRI | -0.056 ± 0.073 |
| IQIFEKGDFSGQMYETTEDCPSIMEQFHMREIHSCKVLEGVWIFYELPNYRGRQYLLDKKEYRKPIDWGAASPAVQSPRRI | -0.869 ± 0.43 |
| IQIFEKGDFSGQMYETTEDCPSIMEQFHMREIHSCKVLEGVWIFYELPNYPGRQYLLDKKEYRKPIDWGAASPAVQSFRRI | -1.03 ± 0.17 |
| IQIFEKGDHSGQMYETTEDCPSIMEQFHMREIHSCKVLEGVWIFYELPNYRGRQYLLDKKEYRKPIDWGAASPAVQSFRRI | 0.067 ± 0.09 |
| IQIFEKGDFSGQMYETTEDCPSIMEQFHMREIHSCKVLEGVWIFYELPNYRGRQYLLDKKEYRKPIDTGAASPAVQSFRRI | 0.089 ± 0.2 |
| IQIFEKGDFSGQMYETTEDCPSIMEQFHMRAIHSCKVLEGVWIFYELPNYRGRQYLLDKKEYRKPIDWGAASPAVQSFRRI | 0.066 ± 0.048 |
| IQIFEKGDFSGQMYETTEDCPSIMEQFHMRDIHSCKVLEGVWIFYELPNYRGRQYLLDKKEYRKPIDWGAASPAVQSFRRI | 0.138 ± 0.12 |
| IQIFEKGDFSGQMYETKEDCPSIMEQFHMREIHSCKVLEGVWIFYELPNYRGRQYLLDKKEYRKPIDWGAASPAVQSFRRI | 0.074 ± 0.13 |
| IQIFEKGDFSGQMYETREDCPSIMEQFHMREIHSCKVLEGVWIFYELPNYRGRQYLLDKKEYRKPIDWGAASPAVQSFRRI | -0.012 ± 0.05 |
| IQIFEKGDFSGQMYEITEDCPSIMEQFHMREIHSCKVLEGVWIFYELPNYRGRQYLLDKKEYRKPIDWGAASPAVQSFRRI | -0.055 ± 0.092 |

| Variant | abundance fitness |
| --- | --- |
| IQIFEKGDFSGQMYETTEDCPSICEQFHMREIHSCKVLEGVWIFYELPNYRGRQYLLDKKEYRKPIDWGAASPAVQSFRRI | -0.016 ± 0.16 |
| IQIFEKGDFSGQMYETTEDCPSIMEQFHMREIHSCKVLEGVWIFYELPNYRGRQYLLDKKEYRKPIDWGAASPAVQTFRRI | -0.714 ± 0.37 |
| IQIFEKGDFSGQMYETTEDCPSIMEQFHMREIHSCKVLEGVWIFYELPNYRGRQYLLDKKEYRKPIDWGAASPAVQGFRRI | -0.35 ± 0.13 |
| IQIFEKGDFSGQIYETTEDCPSIMEQFHMREIHSCKVLEGVWIFYELPNYRGRQYLLDKKEYRKPIDWGAASPAVQSFRRI | 0.062 ± 0.098 |
| IQIFEKGDFSGQSYETTEDCPSIMEQFHMREIHSCKVLEGVWIFYELPNYRGRQYLLDKKEYRKPIDWGAASPAVQSFRRI | -0.023 ± 0.052 |
| IQIFEKGDFSGQMYETTEDCPSIMEQFHMREIHSCKVLEGVWIFYELPNYRGLQYLLDKKEYRKPIDWGAASPAVQSFRRI | -0.059 ± 0.04 |
| IQIFEKGDFSGQMYETTEDCPSIMEQFHMREIHSCKVLEGVWIFYELPNYRGRQYLLGKKEYRKPIDWGAASPAVQSFRRI | 0.031 ± 0.12 |
| IQIFEKGDFSGQMYETTEDCPSIMEQFHMPEIHSCKVLEGVWIFYELPNYRGRQYLLDKKEYRKPIDWGAASPAVQSFRRI | 0 ± 0.1 |
| IQIFEKGDFSGQMYETTEDCPSIMEQFHMWEIHSCKVLEGVWIFYELPNYRGRQYLLDKKEYRKPIDWGAASPAVQSFRRI | 0.105 ± 0.051 |
| IQIFEKGDFSGQMYETTEDCPSIMEQFHMREIHSCKVLEGVWIIYELPNYRGRQYLLDKKEYRKPIDWGAASPAVQSFRRI | -0.215 ± 0.25 |
| IQIFEKCDFSGQMYETTEDCPSIMEQFHMREIHSCKVLEGVWIFYELPNYRGRQYLLDKKEYRKPIDWGAASPAVQSFRRI | -0.367 ± 0.086 |
| IQIFEKGDFSGQMYETTEDCPSIMEQFHMREIHSCKVLEGVWIFYELPNYRGRQYLMDKKEYRKPIDWGAASPAVQSFRRI | 0.17 ± 0.18 |
| IQIFEKGDFSGQMYETTEDCPSIMEQFHMREIHSCKVLEGVWIFYELPCYRGRQYLLDKKEYRKPIDWGAASPAVQSFRRI | -0.078 ± 0.049 |
| IQIFEKGDFSGQMYETTEDCPSIMEQFHMREIHSCKVLEGVWIFYELPYYRGRQYLLDKKEYRKPIDWGAASPAVQSFRRI | -0.044 ± 0.063 |
| IQIFEKGDFSGQMYETTEDCPSIMEQFHMREIHSCKVLEYVWIFYELPNYRGRQYLLDKKEYRKPIDWGAASPAVQSFRRI | -0.137 ± 0.15 |
| IQIFEKGDFSGQMYETTEDCPSIMEQFHMREIHSCKVLEWVWIFYELPNYRGRQYLLDKKEYRKPIDWGAASPAVQSFRRI | -0.312 ± 0.068 |
| IQIFEKGDFSGQMYETTEDCKSIMEQFHMREIHSCKVLEGVWIFYELPNYRGRQYLLDKKEYRKPIDWGAASPAVQSFRRI | -0.016 ± 0.084 |
